Columns and labels:
[1] = test system: NIH 3T3 fibroblasts; assay: Thymidine incorporation (mitogen potentiation), NIH 3T3; format: cell-based, mouse
Method: More specifically, NIH 3T3 fibroblast cells were plated on 24-well plates at 3×10^4 cells/well and grown in DMEM with 10% fetal bovine serum (Intergen Co., Purchase, N.Y.) for 3-4 days and incubated with medium containing 0.2% FBS for the following 48 hours. The following compounds, at the parenthetically noted final concentrations, were then added to the plated cells in fresh DMEM containing 0.2% fbs and [^3H]-thymidine (1 μCi/ml final concentration; ICN Biomedicals, Inc., Costa Mesa, Calif.): bFGF (15 ng/ml), PDGF-BB (30 ng/ml), and murine Cyr61 (0.5-5 μg/ml). These compounds were added to individual plates according to the following pattern: 1) no supplementation; 2) murine Cyr61; 3) bFGF; 4) murine Cyr61 and bFGF; 5) PDGF-BB; and 6) murine Cyr61 and PDGF. After 18-20 hours of incubation, cells were washed with PBS and fixed with 10% trichloroacetic acid. DNA was dissolved in 0.1 N NaOH and thymidine incorporation was determined. […] Without any supplements, 3T3 cells incorporated approximately 1.8×10^4 cpm of [^3H]-thymidine, in the presence or absence of Cyr61. Cells exposed to bFGF alone incorporated about 1.2×10^5 cpm; cells contacting bFGF and murine Cyr61 incorporated 2×10^5 cpm. Cells receiving PDGF-BB incorporated about 1.2×10^5 cpm; and cells exposed to PDGF-BB and murine Cyr61 incorporated approximately 2.4×10^5 cpm.
DNA synthesis for HUVE cells and NIH 3T3 fibroblasts was measured by thymidine incorporation as described previously (Kireeva et al., [1996]) with minor modifications. HUVE cells were grown in 24-well plates to a subconfluent state, serum-starved for 24 hours and treated with F12K medium containing 10% fetal bovine serum (FBS), 1 μCi/ml [^3H]-thymidine and 10 ng/ml basic Fibroblast Growth Factor (bFGF) (Gibco-BRL, Inc.) with various concentrations of Cyr61 and Fisp12 as indicated. NIH 3T3 fibroblasts were grown to subconlfluence, serum-starved for 48 hours, and treated with Minimal Essential Medium (MEM) containing 0.5% FBS, 1 μCi/ml [^3H]-thymidine, bFGF and various concentrations of Cyr61 or Fisp12. Thymidine incorporation into the trichloroacetic acid-insoluble fraction was determined after 24 hour incubation. Logarithmically grown mink lung epithelial cells (Mv1lu, CCL64) were treated with various concentrations of TGF-β1 (Gibco-BRL) and 2 μg/ml of Cyr61 or Fisp12 for 18 hours; [^3H]-thymidine was then added to 1 μCi/ml for 2 hours. Thymidine incorporation was determnined as described above.

[2] = test system: platelets; assay: Platelet adhesion assay; format: cell-based, human; settings: for adhesion of unactivated platelets: PGl2 100 nM, coating 25 μg/ml; for adhesion of activated platelets: thrombin, U46619 or ADP
Method: Microtiter wells were coated with purified recombinant Fisp12/mCTGF or Cyr61, and the adhesion of isolated platelets to these proteins was detected with ^125I-mAb15, an anti-β3 monoclonal antibody (Frelinger et al., J. Biol. Chem 265:6346-6352 [1990]). Platelets were obtained from venous blood drawn from healthy donors and collected into acid-citrate-dextrose (ACD). Washed platelets were prepared by diffenential centrifugation as described (Kinlough-Rathbone et al. Thromb. Haemostas 2:291-308 [1997]), and finally resuspended in HEPES-Tyrode's buffer (5 mM HEPES, pH 7.35, 1 mM MgCl2, 1 mM CaCl2, 135 mM NaCl, 2.7 mM KCl, 11.9 mM NaHCO3, 1 mg/ml dextrose and 3.5 mg/ml BSA). The platelet concentration was adjusted to […].
Microtiter wells (Immulon 2 removawell strips, Dynex Technologies, Inc.) were coated with Cyr61, Fisp12/mCTGF, or fibrinogen (25 μg/ml, 50 μl/well) incubated overnight at 22° C., and then blocked with 3% BSA at 37° C. for 2 hours. Washed platelets were added to the wells (100 μl/well) in the presence and absence of platelet agonists and incubated at 37° C. for 30 minutes. The wells were washed with HEPES-Tyrode's buffer and adherent platelets were detected with ^125I-mAb15, an anti-β3 monoclonal antibody. Exposure to the labeled antibody ([…], 50 μl/well) proceeded for 1 hour at 22° C. After extensive washing with HEPES-Tyrode's buffer, bound radioactivity was determined by γ-counting. In inhibition studies, washed platelets were pre-incubated with blocking peptides or antibodies at 37° C. for 15 minutes prior to addition to microtiter wells.
The anti-β3 antibody was radioiodinated with carrier-free Na^125I (Amersham Corp.) using the IODO-BEADS iodination reagent (Pierce) to a specific activity of approximately 2 μCi/μg. […] As controls, BSA- and fibrinogen-coated (KabiVitrum Inc.) wells were also used. Initially, the adhesion of unactivated versus activated platelets to immobilized Fisp12/mCTGF and Cyr61 was compared. To ensure that plateltes were not activated during the washing procedures, PGl2 (100 nM), which inhibits activation by raising platelet cAMP levels, was added to the platelet suspensions. […]

Molecule	[3H]-thymidine incorporation with PDGF-BB ([1]; PDGF-BB 30 ng/ml plus murine Cyr61 0.5-5 μg/ml)	[3H]-thymidine incorporation with bFGF ([1]; bFGF 15 ng/ml plus murine Cyr61 0.5-5 μg/ml)	minimum concentration for enhancement of bFGF- or PDGF-BB-induced thymidine incorporation ([1]; either cell type (NIH 3T3 or HUVE))	[3H]-thymidine incorporation, no growth factor ([1]; presence or absence of Cyr61)	adhesion of unactivated platelets [2]	adhesion of activated platelets [2]	enhancement of FGF-induced DNA synthesis ([1]; NIH 3T3 fibroblasts)	mitogenic activity by itself ([1]; any tested assay conditions)
Cyr61: Cysteine-rich ECM signaling protein; murine sequence SEQ ID NO:2, recombinant from Baculovirus-infected Sf9 cells (protein, listed as Mus musculus) MSSSTFRTLAVAVTLLHLTRLALSTCPAACHCPLEAPKCAPGVGLVRDGCGCCKVCAKQLNEDCSKTQPCDHTKGLECNFGASSTALKGICRAQSEGRPCEYNSRIYQNGESFQPNCKHQCTCIDGAVGCIPLCPQELSLPNLGCPNPRLVKVSGQCCEEWVCDEDSIKDSLDDQDDLLGLDASEVELTRNNELIAIGKGSSLKRLPVFGTEPRVLFNPLHAHGQKCIVQTTSWSQCSKSCGTGISTRVTNDNPECRLVKETRICEVRPCGQPVYSSLKKGKKCSKTKKSPEPVRFTYAGCSSVKKYRPKYCGSCVDGRCCTPLQTRTVKMRFRCEDGEMFSKNVMMIQSCKCNYNCPHPNEASFRLYSLFNDIHKFRD	approximately 2.4×10^5 cpm	2×10^5 cpm	0.5 to 1.0 µg/mL	approximately 1.8×10^4 cpm	failed to adhere	dramatic increase in platelte adhesion		
Fisp12: Cysteine-rich murine protein, SEQ ID NO:6, mouse ortholog of CTGF (protein, listed as Mus musculus) MLASVAGPISLALVLLALCTRPATGQDCSAQCQCAAEAAPHCPAGVSLVLDGCGCCRVCAKQLGELCTERDPCDPHKGLFCDFGSPANRKIGVCTAKDGAPCVFGGSVYRSGESFQSSCKYQCTCLDGAVGCVPLCSMDVRLPSPDCPFPRRVKLPGKCCKEWVCDEPKDRTAVGPALAAYRLEDTFGPDPTMMRANCLVQTTEWSACSKTCGMGISTRVTNDNTFCRLEKQSRLCMVRPCEADLEENIKKGKKCIRTPKIAKPVKFELSGCTSVKTYRAKFCGVCTDGRCCTPHRTTTLPVEFKCPDGEIMKKNMMFIKTCACHYNCPGDNDIFESLYYRKMYGDMA					failed to adhere	dramatic increase in platelte adhesion	enhance DNA synthesis induced by fibroblast growth factor	did not exhibit any mitogenic activity

Reference: US7521540B2, “CYR61 compositions and methods” (Munin Corporation, priority 1996, dated 2009)
